Test results as given in the supplement of paper PMC9112550, “Optimization of the antimicrobial peptide Bac7 by deep mutational scanning” (BMC Biology, 2022).

system: Escherichia coli TOP10; assay: shrunken log2 fold change of peptide-encoding DNA abundance (4.5 h post-induction vs induction); higher = less antimicrobial activity (less host growth inhibition); conditions: time post-induction: 4.5 h; library: site-saturation at positions 5, 18, 19, 20
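Note: peptides expressed intracellularly from a pBAD plasmid library in pooled LB shake-flask culture, induced with 0.3% L-arabinose, DNA abundance read by NGS, three biological replicates, DESeq2 with apeglm shrinkage.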

First: RRIRHRPPRLPRPRPRPDPLPRP
Second: RRIRPRPPRLPRPRPRPQTCPRP
The “shrunken log2 fold change” value of the first is lower: -0.106 for the first, 0.111 for the second.

RRIRMRPPRLPRPRPRPMQGPRP and RRIRCRPPRLPRPRPRPVCWPRP are within 0.2 log units of each other in “shrunken log2 fold change” value: 0.4 for the first, 0.401 for the second.

Going from RRIRKRPPRLPRPRPRPDLSPRP to RRIRHRPPRLPRPRPRPPYSPRP, the “shrunken log2 fold change” value falls from -0.0341 to -0.418.

Compared with RRIRQRPPRLPRPRPRPGNLPRP, RRIRLRPPRLPRPRPRPSNSPRP is lower in “shrunken log2 fold change” value: 0.0588 for the first, -0.564 for the second.

First: RRIRGRPPRLPRPRPRPSTWPRP
Second: RRIRNRPPRLPRPRPRPQTSPRP
The “shrunken log2 fold change” value of the first is higher: 0.22 for the first, -0.346 for the second.

First: RRIRIRPPRLPRPRPRPGHEPRP
Second: RRIRRRPPRLPRPRPRPNYMPRP
The “shrunken log2 fold change” value of the first is higher: 0.018 for the first, -0.605 for the second.

RRIRERPPRLPRPRPRPVSFPRP and RRIRSRPPRLPRPRPRPHILPRP are within 0.2 log units of each other in “shrunken log2 fold change” value: -0.0647 for the first, -0.0674 for the second.

RRIRDRPPRLPRPRPRPNWRPRP and RRIRSRPPRLPRPRPRPPQKPRP are within 0.2 log units of each other in “shrunken log2 fold change” value: 0.46 for the first, 0.463 for the second.

RRIRWRPPRLPRPRPRPWNAPRP and RRIRHRPPRLPRPRPRPDMDPRP are within 0.2 log units of each other in “shrunken log2 fold change” value: -0.176 for the first, 0.0205 for the second.

RRIRCRPPRLPRPRPRPWLVPRP and RRIRPRPPRLPRPRPRPFVEPRP are within 0.2 log units of each other in “shrunken log2 fold change” value: -0.16 for the first, -0.0706 for the second.

Compared with RRIRFRPPRLPRPRPRPYIPPRP, RRIRFRPPRLPRPRPRPMCPPRP is higher in “shrunken log2 fold change” value: -1.8 for the first, -0.176 for the second.

First: RRIRQRPPRLPRPRPRPKPFPRP
Second: RRIRSRPPRLPRPRPRPHIWPRP
The “shrunken log2 fold change” value of the first is higher: -0.101 for the first, -0.442 for the second.

First: RRIRYRPPRLPRPRPRPNQLPRP
Second: RRIRWRPPRLPRPRPRPSWPPRP
The “shrunken log2 fold change” value of the first is lower: -0.439 for the first, 0.0582 for the second.

RRIRHRPPRLPRPRPRPFCFPRP and RRIRYRPPRLPRPRPRPKLLPRP are within 0.2 log units of each other in “shrunken log2 fold change” value: -0.215 for the first, -0.296 for the second.

RRIRWRPPRLPRPRPRPYAHPRP and RRIRLRPPRLPRPRPRPMHGPRP are within 0.2 log units of each other in “shrunken log2 fold change” value: -0.056 for the first, 0.0554 for the second.

Compared with RRIRIRPPRLPRPRPRPTIDPRP, RRIRDRPPRLPRPRPRPIAYPRP is higher in “shrunken log2 fold change” value: -0.356 for the first, -0.114 for the second.

First: RRIRYRPPRLPRPRPRPQDYPRP
Second: RRIRRRPPRLPRPRPRPIDVPRP
The “shrunken log2 fold change” value of the first is lower: -0.236 for the first, -0.00284 for the second.

First: RRIRNRPPRLPRPRPRPYHKPRP
Second: RRIRRRPPRLPRPRPRPMASPRP
The “shrunken log2 fold change” value of the first is lower: -2.76 for the first, -0.00822 for the second.

RRIRQRPPRLPRPRPRPMHAPRP and RRIRSRPPRLPRPRPRPECYPRP are within 0.2 log units of each other in “shrunken log2 fold change” value: 0.254 for the first, 0.133 for the second.

RRIRVRPPRLPRPRPRPNSFPRP and RRIRERPPRLPRPRPRPWLGPRP are within 0.2 log units of each other in “shrunken log2 fold change” value: -0.0668 for the first, -0.247 for the second.

Compared with RRIRGRPPRLPRPRPRPDKKPRP, RRIRRRPPRLPRPRPRPGSCPRP is lower in “shrunken log2 fold change” value: 0.878 for the first, 0.152 for the second.

Going from RRIRPRPPRLPRPRPRPNCRPRP to RRIRGRPPRLPRPRPRPEYRPRP, the “shrunken log2 fold change” value rises from -0.000174 to 0.354.

RRIRVRPPRLPRPRPRPHEAPRP and RRIRMRPPRLPRPRPRPDLPPRP are within 0.2 log units of each other in “shrunken log2 fold change” value: 0.145 for the first, -0.0325 for the second.

Compared with RRIRTRPPRLPRPRPRPYRPPRP, RRIRSRPPRLPRPRPRPVRCPRP is higher in “shrunken log2 fold change” value: -0.2 for the first, 0.221 for the second.

RRIRMRPPRLPRPRPRPVGEPRP and RRIRRRPPRLPRPRPRPGVFPRP are within 0.2 log units of each other in “shrunken log2 fold change” value: 0.141 for the first, 0.278 for the second.

Going from RRIRKRPPRLPRPRPRPHNDPRP to RRIRPRPPRLPRPRPRPNCDPRP, the “shrunken log2 fold change” value falls from 0.00261 to -0.257.

Compared with RRIRGRPPRLPRPRPRPTIYPRP, RRIRRRPPRLPRPRPRPLSTPRP is lower in “shrunken log2 fold change” value: 0.365 for the first, 0.021 for the second.

First: RRIRARPPRLPRPRPRPYKHPRP
Second: RRIRKRPPRLPRPRPRPHDNPRP
The “shrunken log2 fold change” value of the first is lower: -0.881 for the first, 0.029 for the second.

Compared with RRIRVRPPRLPRPRPRPAWIPRP, RRIRRRPPRLPRPRPRPPRYPRP is higher in “shrunken log2 fold change” value: 0.0483 for the first, 0.978 for the second.

Going from RRIRARPPRLPRPRPRPAYKPRP to RRIRFRPPRLPRPRPRPYTSPRP, the “shrunken log2 fold change” value falls from -0.0413 to -0.256.

First: RRIRIRPPRLPRPRPRPAINPRP
Second: RRIRKRPPRLPRPRPRPENLPRP
The “shrunken log2 fold change” value of the first is lower: -0.606 for the first, 3.46 for the second.

RRIRVRPPRLPRPRPRPSGYPRP and RRIRQRPPRLPRPRPRPDWSPRP are within 0.2 log units of each other in “shrunken log2 fold change” value: -0.28 for the first, -0.0861 for the second.

RRIRVRPPRLPRPRPRPKLEPRP and RRIRKRPPRLPRPRPRPNDMPRP are within 0.2 log units of each other in “shrunken log2 fold change” value: 0.09 for the first, 0.194 for the second.

Compared with RRIRSRPPRLPRPRPRPHTGPRP, RRIRSRPPRLPRPRPRPSCCPRP is higher in “shrunken log2 fold change” value: -0.703 for the first, -0.102 for the second.

RRIRARPPRLPRPRPRPATLPRP and RRIRSRPPRLPRPRPRPGLWPRP are within 0.2 log units of each other in “shrunken log2 fold change” value: 0.34 for the first, 0.266 for the second.

Compared with RRIRKRPPRLPRPRPRPQCKPRP, RRIRKRPPRLPRPRPRPEQNPRP is higher in “shrunken log2 fold change” value: 0.0757 for the first, 0.949 for the second.

RRIRARPPRLPRPRPRPSKMPRP and RRIRMRPPRLPRPRPRPQVNPRP are within 0.2 log units of each other in “shrunken log2 fold change” value: -0.00925 for the first, 0.166 for the second.

Compared with RRIRQRPPRLPRPRPRPQDPPRP, RRIRPRPPRLPRPRPRPPQDPRP is higher in “shrunken log2 fold change” value: -0.239 for the first, 0.523 for the second.

First: RRIRMRPPRLPRPRPRPPVKPRP
Second: RRIRSRPPRLPRPRPRPLFVPRP
The “shrunken log2 fold change” value of the first is higher: 0.512 for the first, -0.188 for the second.

First: RRIRTRPPRLPRPRPRPVCQPRP
Second: RRIRKRPPRLPRPRPRPVANPRP
The “shrunken log2 fold change” value of the first is higher: 2.97 for the first, 0.0525 for the second.

RRIRPRPPRLPRPRPRPEVQPRP and RRIRVRPPRLPRPRPRPYRCPRP are within 0.2 log units of each other in “shrunken log2 fold change” value: 0.0715 for the first, -0.0108 for the second.

RRIRYRPPRLPRPRPRPRMMPRP and RRIRSRPPRLPRPRPRPMCVPRP are within 0.2 log units of each other in “shrunken log2 fold change” value: 0.0163 for the first, -0.134 for the second.

First: RRIRQRPPRLPRPRPRPYQYPRP
Second: RRIRFRPPRLPRPRPRPSYSPRP
The “shrunken log2 fold change” value of the first is higher: -0.016 for the first, -0.903 for the second.

Going from RRIRQRPPRLPRPRPRPHGWPRP to RRIRNRPPRLPRPRPRPCYFPRP, the “shrunken log2 fold change” value falls from -0.0188 to -0.408.

Compared with RRIRGRPPRLPRPRPRPMYDPRP, RRIRARPPRLPRPRPRPVGWPRP is higher in “shrunken log2 fold change” value: 0.233 for the first, 1.02 for the second.

RRIRHRPPRLPRPRPRPEEPPRP and RRIRKRPPRLPRPRPRPQTLPRP are within 0.2 log units of each other in “shrunken log2 fold change” value: 0.0179 for the first, 0.0931 for the second.

RRIRERPPRLPRPRPRPVARPRP and RRIRLRPPRLPRPRPRPWYQPRP are within 0.2 log units of each other in “shrunken log2 fold change” value: -0.168 for the first, -0.149 for the second.

Compared with RRIRCRPPRLPRPRPRPKGLPRP, RRIRDRPPRLPRPRPRPTVNPRP is higher in “shrunken log2 fold change” value: -0.134 for the first, 0.0689 for the second.

Going from RRIRFRPPRLPRPRPRPLPFPRP to RRIRIRPPRLPRPRPRPWQLPRP, the “shrunken log2 fold change” value rises from -0.452 to -0.0817.

Compared with RRIRCRPPRLPRPRPRPYKLPRP, RRIRGRPPRLPRPRPRPFTTPRP is higher in “shrunken log2 fold change” value: -0.898 for the first, 0.0423 for the second.

RRIRPRPPRLPRPRPRPQDRPRP and RRIRCRPPRLPRPRPRPQQRPRP are within 0.2 log units of each other in “shrunken log2 fold change” value: -0.0277 for the first, 0.0521 for the second.

RRIRKRPPRLPRPRPRPQLWPRP and RRIRRRPPRLPRPRPRPREFPRP are within 0.2 log units of each other in “shrunken log2 fold change” value: 0.539 for the first, 0.419 for the second.

Compared with RRIRSRPPRLPRPRPRPTSSPRP, RRIRHRPPRLPRPRPRPEPHPRP is higher in “shrunken log2 fold change” value: -0.296 for the first, 0.113 for the second.

Compared with RRIRERPPRLPRPRPRPGRKPRP, RRIRWRPPRLPRPRPRPAENPRP is higher in “shrunken log2 fold change” value: -0.12 for the first, 0.568 for the second.

For RRIRSRPPRLPRPRPRPSTQPRP, the “shrunken log2 fold change” value was 2.48.
